The test system of one data set is GFP reporter gene. Nature of the data set: Maltose / aspartate induction of Tar HK fusions, GFP reporter gene fluorescence, FACS screen. Particulars: for maltose inducibility: maltose via MBP. The class given is cell-based, E. coli. On the technique in general: A reporter such as luciferase makes a cellular process visible.
The conditions of data set [1]: cited from earlier work.
Data set [2] relates to plant pho promoter: luciferase reporter gene. Description: Luciferase reporter in transgenic Arabidopsis, circuit RBP→TrzPhoR→PhoBVP64, exposure to ribose. Particulars: 0 hours vs 24 hours after exposure to ribose. The class given is in vivo. As to the method: FIG. 9A and FIG. 9B. Imaging of a luciferase gene reporter in transgenic Arabidopsis with the signaling circuit Ribose Binding Protein (RBP)→TrzPhoR→PhoBVP64 activating a plant pho promoter: luciferase reporter gene FIG. 9A. Four transgenic Arabidopsis lines at 0 hours (no exposure to ribose) top panel and 24 hours after exposure to ribose bottom panel. FIG. 9B. Quantification of luciferase activity from FIG. 9A.
Because the ground state of a histidine kinase is such that the kinase is active, “kinase on” and the predominate signaling phenotype seen in non-functional fusions is “kinase on,” the inventors reasoned that the valine at the D position is essential in maintaining the “kinase off” state in the absence of ligand dependent signaling. Fusions where the D position valine is replaced by alanine, glycine (the two hydrophobic amino acids smaller than valine) or a methionine (the D position residue of PhoR) results in constitutive activation (FIG. 8). E. coli has 10 HKs, including EnvZ, with HAMP domains adjacent to the HK coiled coil (FIG. 8). EnvZ is the only HK with a valine in the A/D position. There are 4 other amino acids, glutamate, isoleucine, leucine and threonine that occupy the A/D position in the 9 other E. coli HKs with a HAMP/HK coiled coil A/D overlap. […]

Data set [3] has as its system PhoB responsive promoter driving a β-galactosidase reporter gene. Particulars: E. coli BW23423; maltose control vs ribose; X-Gal; functional = off without ligand, on with ligand.

B1: Tac8: TrzChim3-8 with the chemotactic receptor Tar replacing the chemotactic receptor Trg, SEQ ID NO:22 (protein)
chain: MINRIRVVTLLVMVLGVFALLQLISGSLFFSSLHHSQKSFVVSNQLREQQGELTSTWDLMLQTRINLSRSAVRMMMDSSNQQSNAKVELLDSARKTLAQAATHYKKFKSMAPLPEMVATSRNIDEKYKNYYTALTELIDYLDYGNTGAYFAQPTQGMQNAMGERFAQYALSSEKLYRDIVTDNADDYRFAQWQLAVIALVVVLILLVAWYGIRRMLLTPLAKIIAHIREIAGGNLANTLTIDGRSEMGDLAQSVSHMAAGVKQLRGVRTLLMAGVSHDLRTPLTVLQGYLEMMNEQPLEGAVREKALHTMREQTQRMNAIIEQFIDYLRTGQEMPMEMADLNAVLGEVIAAESGYEREIETALYPGSIEVKMHPLSIKRAVANMVVNAARYGNGWIKVSSGTEPNRAWFQVEDDGPGIAPEQRKHLFQPFVRGDSARTISGTGLGLAIVQRIVDNHNGMLELGTSERGGLSIRAWLPVPVTRAQGTTKEG
modifications: Fusion protein
Take B1: in the data set with GFP reporter gene, the aspartate inducibility result is “aspartate inducibility of both fusions was observed” and the maltose inducibility entry is on record as “no maltose inducibility”.

B2: Tac40: Maltose inducible directed evolution variant of Tac8, SEQ ID NO:24 (protein)
chain: MINRIRVVTLLVMVLGVFALLQLISGSLFFSSLHHSQKSFVVSNQLREQQGELTSTWDLMLQTRINLSRSAVRMMMDSSNQQSNAKVELLDSARKTLAQAATHYKKFKSMAPLPEMVATSRNIDEKYKNYYTALTELIDYLDYGNTGAYFAQPTQGMQNAMGERFAQYALSSEKLYRDIVTDNADDYRFAQWQLAVIALVVVLILLVAWYGIRRMLLTPLAKIIAHIREIAGGNLANTLTIDGRSEMGDLAQSVSHMAAGVKQLVWRRTLLMAGVSHDLRTPLTVLQGYLEMMNEQPLEGAVREKALHTMREQTQRMNAIIEQFIDYLRTGQEMPMEMADLNAVLGEVIAAESGYEREIETALYPGSIEVKMHPLSIKRAVANMVVNAARYGNGWIKVSSGTEPNRAWFQVEDDGPGIAPEQRKHLFQPFVRGDSARTISGTGLGLAIVQRIVDNHNGMLELGTSERGGLSIRAWLPVPVTRAQGTTKEG
modifications: Fusion protein
For B2, the maltose inducibility result in the data set with GFP reporter gene was “Maltose inducible”.

B3: Taz: Tar chemotactic receptor fused to EnvZ histidine kinase at conserved HAMP domain, SEQ ID NO:38 (protein)
chain: MINRIRVVTLLVMVLGVFALLQLISGSLFFSSLHHSQKSFVVSNQLREQQGELTSTWDLMLQTRINLSRSAVRMMMDSSNQQSNAKVELLDSARKTLAQAATHYKKFKSMAPLPEMVATSRNIDEKYKNYYTALTELIDYLDYGNTGAYFAQPTQGMQNAMGERFAQYALSSEKLYRDIVTDNADDYRFAQWQLAVIALVVVLILLVAWYGIRRMLLTPLAKIIAHIREIAGGNLANTLTIDGRSEMGDLAQSVSHMAAGVKQLADDRTLLMAGVSHDLRTPLTRIRLATEMMSEQDGYLAESINKDIEECNAIIEQFIDYLRTGQEMPMEMADLNAVLGEVIAAESGYEREIETALYPGSIEVKMHPLSIKRAVANMVVNAARYGNGWIKVSSGTEPNRAWFQVEDDGPGIAPEQRKHLFQPFVRGDSARTISGTGLGLAIVQRIVDNHNGMLELGTSERGGLSIRAWLPVPVTRAQGTTKEG
modifications: Fusion protein
For the molecule B3, in data set [1] (aspartate), the induction by aspartate entry is “retains the ability to be induced by aspartate”. Further, in data set [1] (maltose), the response to maltose entry is listed as “no longer shows a response to maltose”.

B4: TazPhoR: TrzPhoR fusion with the Tar chemotactic receptor replacing the Trg chemotactic receptor, SEQ ID NO:16 (protein)
chain: MKLLSKTFLILTLTFFFFGIALAKMINRIRVVTLLVMVLGVFALLQLISGSLFFSSLHHSQKSFVVSNQLREQQGELTSTWDLMLQTRINLSRSAVRMMMDSSNQQSNAKVELLDSARKTLAQAATHYKKFKSMAPLPEMVATSRNIDEKYKNYYTALTELIDYLDYGNTGAYFAQPTQGMQNAMGEAFAQYALSSEKLYRDIVTDNADDYRFAQWQLAVIALVVVLILLVAWYGIRRMLLTPLAKIIAHIREIAGGNLANTLTIDGRSEMGDLAQSVSHMAAGVKQLEGARRNFFANVSHELRTPLTVLQGYLEMMNEQPLEGAVREKALHTMREQTQRMEGLVKQLLTLSKIEAAPTHLLNEKVDVPMMLRVVEREAQTLSQKKQTFTFEIDNGLKVSGNEDQLRSAISNLVYNAVNHTPEGTHITVRWQRVPHGAEFSVEDNGPGIAPEHIPRLTERFYRVDKARSRQTGGSGLGLAIVKHAVNHHESRLNIESTVGKGTRFSFVIPERLIAKNSD
modifications: Fusion protein
Regarding B4, in the data set with GFP reporter gene, the aspartate inducibility entry is “aspartate inducibility of both fusions was observed” and the maltose inducibility result is given as “no maltose inducibility”.

B5: TazPhoR 86: Maltose inducible directed evolution variant of TazPhoR, SEQ ID NO:20 (protein)
chain: MKLLSKTFLILTLTFFFFGIALAKMINRIRVVTLLVMVLGVFALLQLISGSLFFSSLHHSQKSFVVSNQLREQQGELTSTWDLMLQTRINLSRSAVRMMMDSSNQQSNAKVELLDSARKTLAQAATHYKKFKSMAPLPEMVATSRNIDEKYKNYYTALTELIDYLDYGNTGAYFAQPTQGMQNAMGEAFAQYALSSEKLYRDIVTDNADDYRFAQWQLAVIALVVVLILLVAWYGIRRMLLTPLAKIIAHIREIAGGNLANTLTIDGRSEMGDLAQSVSHMAAGVKQLRVWRRNFFANVSHELRTPLTVLQGYLEMMNEQPLEGAVREKALHTMREQTQRMEGLVKQLLTLSKIEAAPTHLLNEKVDVPMMLRVVEREAQTLSQKKQTFTFEIDNGLKVSGNEDQLRSAISNLVYNAVNHTPEGTHITVRWQRVPHGAEFSVEDNGPGIAPEHIPRLTERFYRVDKARSRQTGGSGLGLAIVKHAVNHHESRLNIESTVGKGTRFSFVIPERLIAKNSD
modifications: Fusion protein
Consider B5, for which the maltose inducibility result with GFP reporter gene is reported as “Maltose inducible”.

B6: TrzPhoR: coiled coil based fusion of Trz (Trg chemotactic receptor/EnvZ histidine kinase fusion) to PhoR histidine kinase, SEQ ID NO:2 (protein)
chain: MNTTPSQRLGFLHHIRLVPLFACILGGILVLFALSSALAGYFLWQADRDQRDVTAEIEIRTGLANSSDFLRSARINMIQAGAASRIAEMEAMKRNIAQAESEIKQSQQGYRAYQNRPVKTPADEALDTELNQRFQAYITGMQPMLKYAKNGMFEAIINHESEQIRPLDNAYTDILNKAVKIRSTRANQLAELAHQRTRLGGMFMIGAFVLALVMTLITFMVLRRIVIRPLQHAAQRIEKIASGDLTMNDEPAGRNEIGRLSRHLQHMAAGVKQLEGARRNFFANVSHELRTPLTVLQGYLEMMNEQPLEGAVREKALHTMREQTQRMEGLVKQLLTLSKIEAAPTHLLNEKVDVPMMLRVVEREAQTLSQKKQTFTFEIDNGLKVSGNEDQLRSAISNLVYNAVNHTPEGTHITVRWQRVPHGAEFSVEDNGPGIAPEHIPRLTERFYRVDKARSRQTGGSGLGLAIVKHAVNHHESRLNIESTVGKGTRFSFVIPERLIAKNSD
Consider B6, for which, in data set [2], the “function in the plant detector system (luciferase activity)” value is on record as “highly functional”. Further, in data set [3], the “signaling phenotype of the fusion (ribose inducible β-galactosidase activity)” value is “functional”.

B7: TazPhoR 61: Maltose inducible directed evolution variant of TazPhoR, SEQ ID NO:18 (protein)
chain: MKLLSKTFLILTLTFFFFGIALAKMINRIRVVTLLVMVLGVFALLQLISGSLFFSSLHHSQKSFVVSNQLREQQGELTSTWDLMLQTRINLSRSAVRMMMDSSNQQSNAKVELLDSARKTLAQAATHYKKFKSMAPLPEMVATSRNIDEKYKNYYTALTELIDYLDYGNTGAYFAQPTQGMQNAMGEAFAQYALSSEKLYRDIVTDNADDYRFAQWQLAVIALVVVLILLVAWYGIRRMLLTPLAKIIAHIREIAGGNLANTLTIDGRSEMGDLAQSVSHMAAGVKQLRRNFFANVSHELRTPLTVLQGYLEMMNEQPLEGAVREKALHTMREQTQRMEGLVKQLLTLSKIEAAPTHLLNEKVDVPMMLRVVEREAQTLSQKKQTFTFEIDNGLKVSGNEDQLRSAISNLVYNAVNHTPEGTHITVRWQRVPHGAEFSVEDNGPGIAPEHIPRLTERFYRVDKARSRQTGGSGLGLAIVKHAVNHHESRLNIESTVGKGTRFSFVIPERLIAKNSD
modifications: Fusion protein
Regarding B7, the maltose inducibility entry in the data set with GFP reporter gene is recorded as “Maltose inducible”.
